Measured values: patent US20080166364A1 (COVX TECHNOLOGY IRELAND, published 2008)
Non-standard residues stand in square brackets, D forms with d. No end group written: not given here. Phe(4-NO2) = N[C@@H](Cc1ccc([N+](=O)[O-])cc1)C(=O)O; Phe(4-COOH) = N[C@@H](Cc1ccc(C(=O)O)cc1)C(=O)O; Bpa = N[C@@H](Cc1ccc(C(=O)c2ccccc2)cc1)C(=O)O; Hyp = O=C(O)[C@@H]1C[C@@H](O)CN1; 0P linker = not defined here; acyl = not defined here; ThA = thiazolylalanine

T1: human angiopoietin-2 protein (human, UniProt O15123 19-496)
T1 construct: bought; also called Ang-2; Ang2
T1 sequence (looked up): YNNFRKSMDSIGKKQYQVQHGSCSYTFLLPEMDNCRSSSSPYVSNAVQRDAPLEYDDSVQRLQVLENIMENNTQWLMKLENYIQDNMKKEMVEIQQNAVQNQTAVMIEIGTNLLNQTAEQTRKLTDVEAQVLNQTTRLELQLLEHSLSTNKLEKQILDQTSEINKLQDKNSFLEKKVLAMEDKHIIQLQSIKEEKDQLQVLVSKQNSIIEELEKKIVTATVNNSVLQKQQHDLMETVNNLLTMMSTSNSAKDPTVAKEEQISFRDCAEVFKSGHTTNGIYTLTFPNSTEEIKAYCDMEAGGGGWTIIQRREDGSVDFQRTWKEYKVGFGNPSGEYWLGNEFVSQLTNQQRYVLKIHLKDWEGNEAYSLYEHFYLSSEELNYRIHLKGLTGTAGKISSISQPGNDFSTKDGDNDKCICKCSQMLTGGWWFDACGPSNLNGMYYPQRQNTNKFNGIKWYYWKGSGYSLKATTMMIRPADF


target: T1, human angiopoietin-2 protein; test: competitive ELISA, coated Ang-2, 0.25 nM hTie-2-Fc; peptide alone
Method: (§1) For competitive ELISA, human angiopoietin-2 protein and Tie-2-Fc (R&D Systems) were reconstituted without carrier protein. Mouse anti-human Tie-2 (Pharmingen) was used as the primary antibody and goat anti-mouse-IgG1-HRP (Pierce) was used as the secondary antibody. TMB substrate from Pierce was used.
(§2) High-binding half-well plates were coated with Ang-2 (100 ng/well) in 50 μl PBS and incubated at 4° C. overnight. Plates were washed three times with washing buffer (0.1% Tween 20, PBS, pH 7.4) and blocked with Superblock (Scytek), 100 μl/well at room temperature (“RT”) for 1 hour. After removing the blocking solution, 50 μl of an Ang-2 binding peptide compound (1 uM and 5× serial dilution) in the presence of 0.25 nM hTie-2-Fc using Superblock as diluent was added and incubated at RT for 2 hours. Plates were washed 3 times with washing buffer. Then, 50 ul of 0.1 ug/ml mouse anti-human Tie-2 diluted in Superblock added and incubated at RT for 1 hour. Following incubation, 50 ul of 1:5,000 dilution of goat anti-mouse IgG-HRP in Superblock was then added and incubated at RT for one hour. After washing 3 times, 50 μl (25 μl TMB+25 μl H₂O₂) was added, and incubated for 3-5 minutes. Color development was monitored and stopped with 25 μl of 2 M H₂SO₄. OD450 nm with a correction wavelength of 540 nm was measured.

Row | IC50 | Binder
1 | 27.8 nM | QNYQPLDELDKTLYDQFMLQQG-NH2 (not fully specified (N-terminus); also: N-term acyl cap, acyl not given here, not conjugated to linker or antibody) [Compound 23: Ang-2 binding peptide alone]

target: T1, human angiopoietin-2 protein; test: competitive ELISA, coated Ang-2, 0.25 nM hTie-2-Fc; T form
Method: as §1, §2

Row | Binder | IC50
2 | QXYQPLDELDXTXYDQFMLQQG (not fully specified; N-term acyl cap; C-term NH2 cap; AcK at 2; 0P linker on K11; HF at 13) [Compound 39 (T): targeting peptide plus 0P linker] | 4890 nM
3 | XKYQPLDELDKTLYDQFMLQQG (not fully specified; 0P linker at the N-terminus (no acyl cap); C-term NH2 cap) [Compound 26 (T): targeting peptide plus 0P linker] | 32.3 nM
4 | QK(Ac)YQPLDEK(0P linker)DETLYDQFMLQQG (not fully specified (N-terminus, C-terminus); printed as Q(AcK)Y QPL DEK(0P) DET LYD QFM LQQ G; reading uncertain) [Compound 33 (T): targeting peptide plus 0P linker] | 370 nM
5 | QNYQPLDELDXTLYDQFMLQQG (not fully specified; N-term acyl cap; C-term NH2 cap; 4P linker on K11) [Compound 25 (T): targeting peptide plus 4P linker] | 300 nM
6 | QKYQPLDELDXTLYDQFMLQQG (not fully specified; N-term acyl cap; C-term NH2 cap; 0P linker on K11) [Compound 27 (T): targeting peptide plus 0P linker] | 29 nM
7 | QXYQXLDELDXTLYDQFMLQQG (not fully specified; N-term acyl cap; C-term NH2 cap; AcK at 2; DHP at 5 (printed D(HP)); 0P linker on K11) [Compound 34 (T): targeting peptide plus 0P linker] | 224 nM
8 | QXYQPLDELDXTLYDQFMLQQG (not fully specified; N-term acyl cap; C-term NH2 cap; AcK at 2; 4P linker on K11) [Compound 24 (T): targeting peptide plus 4P linker] | 207 nM
9 | QXYQPLDELDXTIYDQFMLQQG (not fully specified; N-term acyl cap; C-term NH2 cap; AcK at 2; 0P linker on K11) [Compound 36 (T): targeting peptide plus 0P linker] | 2410 nM
10 | QXYQPLDEIDXTLYDQFMLQQG (not fully specified; N-term acyl cap; C-term NH2 cap; AcK at 2; 0P linker on K11) [Compound 37 (T): targeting peptide plus 0P linker] | 1270 nM
11 | QXYQXLDELDXTLYDQFMLQQG (not fully specified; N-term acyl cap; C-term NH2 cap; AcK at 2; HP at 5; 0P linker on K11) [Compound 35 (T): targeting peptide plus 0P linker] | 121 nM
12 | QXYQPLDELDXTLYDQFMLQQG (not fully specified; N-term acyl cap; C-term NH2 cap; AcK at 2; 0P linker on K11) [Compound 29 (T): targeting peptide plus 0P linker] | 83.3 nM
13 | QXYQPLDELDXTXYDQFMLQQG (not fully specified; N-term acyl cap; C-term NH2 cap; AcK at 2; 0P linker on K11; HL at 13) [Compound 42 (T): targeting peptide plus 0P linker] | 1340 nM
14 | QXYQPLDELDXTXYDQFMLQQG (not fully specified; N-term acyl cap; C-term NH2 cap; AcK at 2; 0P linker on K11; Nva at 13) [Compound 41 (T): targeting peptide plus 0P linker] | 1340 nM
15 | QXYQPLDEXDXTLYDQFMLQQG (not fully specified; N-term acyl cap; C-term NH2 cap; AcK at 2; 0P linker on K9; AcK at 11) [Compound 30 (T): targeting peptide plus 0P linker] | 279 nM
16 | QNYQPLDELDXTLYDQFMLQQG (not fully specified; N-term acyl cap; C-term NH2 cap; 0P linker on K11) [Compound 28 (T): targeting peptide plus 0P linker] | 175 nM

Other lines, results leading:

Row | IC50 | Binder
17 | 147 nM | QXYQPLDELDXTLYDQFMLQQG (N-term acyl cap; C-term NH2 cap; (ClBnCarbamate)K at 2; 0P linker on K11, only one IC50 printed, standing in column T) [Compound 53 (T): targeting peptide plus 0P linker]
18 | 33 nM | QXYQPLDELDXTLYDQFMLQQG (N-term DFB (difluorobenzoyl) cap; C-term NH2 cap; AcK at 2; 0P linker on K11) [Compound 50 (T): targeting peptide plus 0P linker]
19 | 14.3 nM | QXYQPLDELDXTLYDQFMLQQG (not fully specified; N-term PyC (pyridinyl carboxylate) cap; C-term NH2 cap; AcK at 2; 0P linker on K11) [Compound 51 (T): targeting peptide plus 0P linker]
20 | 28.4 nM | QXYQPLDELDXTLYDQFMLQQG (N-term DCB (dichlorobenzoyl) cap; C-term NH2 cap; AcK at 2; 0P linker on K11) [Compound 49 (T): targeting peptide plus 0P linker]
21 | 177 nM | QRYQPLDELDXTLYDQFMLQQG (not fully specified; N-term acyl cap; C-term NH2 cap; 0P linker on K11) [Compound 59 (T): targeting peptide plus 0P linker]
22 | 214 nM | QHYQPLDELDXTLYDQFMLQQG (not fully specified; N-term acyl cap; C-term NH2 cap; 0P linker on K11) [Compound 60 (T): targeting peptide plus 0P linker]
23 | 134 nM | QXYQPLDELDXTLYDQFMLQQG (not fully specified; N-term amido 2-PEG cap; C-term NH2 cap; AcK at 2; 0P linker on K11) [Compound 52 (T): targeting peptide plus 0P linker]
24 | 110 nM | QNYQPLDELDK(0P linker)TL[Phe(4-COOH)]DQFMLQQG (not fully specified (N-terminus, C-terminus); printed as QNY QPL DEL DK(0P)T L(CF)D QFM LQQ G; reading uncertain) [Compound 57 (T): targeting peptide plus 0P linker]
25 | 36.9 nM | QXYQPLDELDXTLFDQFMLQQG (not fully specified; N-term acyl cap; C-term NH2 cap; AcK at 2; 0P linker on K11) [Compound 44 (T): targeting peptide plus 0P linker]
26 | 292 nM | QXYQPLDELDXTLYDQFMLQQG (N-term acyl cap; C-term NH2 cap; AcK at 2; Dab at 11 carrying the 0P linker) [Compound 54 (T): targeting peptide plus 0P linker]
27 | 82.4 nM | acyl-QK(Ac)YQPLDEK(Ac)DK(0P linker)TL[Phe(4-NO2)]DQFMLQQG-NH2 (reading uncertain; also: printed as Q(AcK)Y QPL DE(AcK) DK(0P)T L(NO2F)D QFM LQQ G) [Compound 48 (T): targeting peptide plus 0P linker]
28 | 24.7 nM | QK(Ac)YQ[Hyp]LDE[ThA]DK(0P linker)TL[Phe(4-NO2)]DQFMLQQG (not fully specified (N-terminus, C-terminus); printed as Q(AcK)Y Q(HP)L DE(ThA) DK(0P)T L(NO2F)D QFM LQQ G; reading uncertain) [Compound 45 (T): targeting peptide plus 0P linker]
29 | 499 nM | acyl-QK(Ac)YQPLDEK(Ac)DK(0P linker)TL[Phe(4-COOH)]DQFMLQQG-NH2 (reading uncertain; also: printed as Q(AcK)Y QPL DE(AcK) DK(0P)T L(CF)D QFM LQQ G) [Compound 62 (T): targeting peptide plus 0P linker]
30 | 43.3 nM | acyl-QK(Ac)YQ[Hyp]LDE[ThA]DK(0P linker)TL[Phe(4-COOH)]DQFMLQQG-NH2 (reading uncertain; also: printed as Q(AcK)Y Q(HP)L DE(ThA) DK(0P)T L(CO2H)FD QFM LQQ G) [Compound 47 (T): targeting peptide plus 0P linker]
31 | 82.7 nM | acyl-QK(Ac)YQ[Hyp]LDE[ThA]DK(0P linker)TL[Bpa]DQFMLQQG-NH2 (reading uncertain) [Compound 46 (T): targeting peptide plus 0P linker]
32 | 83.9 nM | QXYQPLDELDXTLYDQFMLQQG (not fully specified; N-term acyl cap; C-term NH2 cap; NicK (nicotinyl lysine) at 2; 0P linker on K11, only one IC50 printed, standing in column T) [Compound 61 (T): targeting peptide plus 0P linker]
33 | 92.2 nM | acyl-QNYQPLDELDK(0P linker)TL[Bpa]DQFMLQQG-NH2 (reading uncertain; also: printed as QNY QPL DEL DK(0P)T L(BPA)D QFM LQQ G) [Compound 56 (T): targeting peptide plus 0P linker]
34 | 598 nM | QXYQPLDELDXTLYDQFMLQQG (N-term acyl cap; C-term NH2 cap; AcK at 2; Dap at 11 carrying the 0P linker) [Compound 55 (T): targeting peptide plus 0P linker]

target: T1, human angiopoietin-2 protein; test: competition ELISA, coated Ang-2, competitor compound 43-0P-h38c2 10 ng/mL; T form
Method: Recombinant human Ang-2 was coated on microtiter plates at 0.5 μg/mL in 100 μL , overnight at 2-8° C. Plates were washed between all steps and all subsequent incubations occurred at room temperature. Plates were blocked with 250 μL per well of SuperBlock for 1-3 hours. Test compounds were pre-mixed with compound 43 linked to linker (as shown in FIG. 3) and h38c2 AT 10 ng/mL. Peptide mixtures in 100 μL were then added at the listed final concentrations, then plates sealed, and incubated for 1-2 hours. Bound compounds 43 was detected with 100 uL of a 1:20,000 dilution of HRP-labeled anti-human IgG reagent for solution.

Row | IC50 | Binder
35 | 847 nM | Ac-QK(Ac)YQPLDEK(Ac)DK(0P linker)TLYDQFM-NH2 (reading uncertain, C-terminal truncation of 43(a) by 4 residues) [Compound 86 (T): targeting peptide plus 0P linker]
36 | 444 nM | Ac-QK(Ac)YQPLDEK(Ac)DK(0P linker)TLYDQFML-NH2 (reading uncertain, C-terminal truncation of 43(a) by 3 residues) [Compound 85 (T): targeting peptide plus 0P linker]
37 | 111 nM | Ac-QK(Ac)YQPLDEK(Ac)DK(0P linker)TLYDQFMLQQ-NH2 (reading uncertain, C-terminal truncation of 43(a) by 1 residue) [Compound 83 (T): targeting peptide plus 0P linker]
38 | 190 nM | Ac-QK(Ac)YQPLDEK(Ac)DK(0P linker)TLYDQFMLQ-NH2 (reading uncertain, C-terminal truncation of 43(a) by 2 residues) [Compound 84 (T): targeting peptide plus 0P linker]
39 | 139 nM | QXYQPLDEXDXTLYDQFMLQQG (N-term ac; C-term am; AcK at 2; AcK at 9; 0P linker on K11) [Compound 43(a) (T): targeting peptide plus 0P linker]
